Reference: US10435681B2, “Compounds and methods for stabilizing thrombin activity” (Omrix Biopharmaceuticals Ltd., priority 2013, dated 2019)
Entries after “also recorded” stand apart in the source; their conditions may differ.

Tests used:
thrombin [1] = target: T1, thrombin (Homo sapiens, UniProt P00734); experiment: Thrombin stability testing: remaining clotting activity of 1000 IU/ml liquid thrombin after storage at 37° C.; assay type: biochemical; conditions: 0.5 mM peptide, 1000 IU/ml thrombin; for stabilization of thrombin activity (in words): 37° C., 0, 3 and 7 days
T1 construct: yields the active alpha thrombin molecule which is a 295 amino acid polypeptide (human) composed of a heavy and light chain
Protocol: Aqueous liquid thrombin, in its purified and concentrated form 1000 international units IU/ml may undergo autolysis at room temperature causing a significant loss of activity e.g. towards a heterologous substrate. E.g. thrombin activity towards a heterologous substrate is reduced when a liquid thrombin formulation is incubated at room temperature for prolonged periods of time (e.g. 72 to 144 hours), inter alia, due to autolytic degradation. The decrease of thrombin activity towards a heterologous substrate in aqueous liquid solution can be assessed by measuring thrombin activity after prolonged periods of time and under permissive temperature (e.g. 37° C.). In the following experiments, the effect of a peptide on the stability of thrombin was studied under different conditions.
Aqueous liquid purified and concentrated thrombin (1000 IU/ml; equivalent to about 10 μM) was aliquoted and placed in a 37° C. incubator for 3 days (72 hours), 7 days (168 hours) and 14 days (336 hours). Prior to incubation, thrombin samples were spiked with indicated amounts of different tested peptides or with a control thrombin inhibitor: benzamidine or arginine *HCl (“arginine”). Specific peptides, their concentrations, and thrombin inhibitors used are indicated in each Example. Following the incubation period, the samples were frozen at −80° C. until testing the thrombin activity. Just before thrombin activity assay testing, all the samples were thawed and 100-fold diluted into a dilution buffer (0.4% tri-sodium citrate di-hydrate, 0.9% sodium chloride and 1% BSA, pH=7.5) to bring the thrombin concentration in the sample to that within the specifications of the assay (4-10 IU/ml) and to dilute the tested peptides in the sample to a negligible concentration.
(§1) Thrombin activity was assessed by clotting time measurements using STart4 Coagulation Instrument (DIAGNOSTICA STAGO™, Asnieres sur Seine, France). The assay is a modification of the European Pharmacopoeia Assay procedure, 1997, 0903, p. 858. Briefly, a calibration curve was prepared by mixing thrombin standard with a fibrinogen solution of 0.1% fibrinogen content (Enzyme Research Laboratories, Ind., USA). Thrombin concentration in the different tested samples was then calculated from the calibration curve by their clotting time (the concentration was extrapolated from the calibration curve).
For stability testing of 1000IU/ml thrombin following storage with or without peptides, testing was carried out as described above. Dilutions (1:100) were carried out before measuring the activity.
All of these peptides (“mutant gamma loop peptides” identified in Example 3, random peptides, thrombin derived peptides, and “gamma loop binding peptides” mentioned above) were tested for their ability to stabilize thrombin activity at a concentration of 0.5 mM as described in Example 2.

thrombin [2] = target: T1, thrombin; experiment: Thrombin inhibition testing: clotting activity of 10 IU/ml thrombin towards fibrinogen in the presence of the additive; assay type: biochemical
Protocol: as §1
For inhibition testing, the clotting activity of 10 IU/ml thrombin was measured in the presence or absence of peptides.
The assay was carried out as described in Example 1.

thrombin [3] = target: T1, thrombin; experiment: Thrombin stability testing: remaining clotting activity of 1000 IU/ml liquid thrombin after storage at 37° C.; assay type: biochemical; conditions: 1000 IU/ml thrombin
gamma loop of thrombin = target: T2, gamma loop of thrombin (Homo sapiens, UniProt P00734); experiment: Peptide microarray binding screen with fluorescent gamma loop peptide; conditions: scale 0-65535
T2 construct: Fluorescein-labeled cyclic gamma-loop derived peptide; made in house; host or cells: chemical synthesis
Protocol: Based on the results disclosed in Example 2, the gamma loop peptide was used as a bait to find additional peptides which may positively affect the stability of thrombin. For this purpose, a binding screen was carried out using a fluorescent gamma loop peptide incubated with several peptide arrays.
(§2) A library of 1,676 15-meric peptides spanning the sequences of proteins interacting with the gamma loop of thrombin such as thrombin itself, anti-thrombin III (ATIII), thrombomodulin, heparin cofactor II, bovine pancreatic trypsin inhibitor (BPTI), and hirudin, and modifications of the thrombin gamma loop sequence were generated. Peptides were synthesized using SPOT synthesis (Wenschuh H, et al. (2000). Coherent membrane supports for parallel microsynthesis and screening of bioactive peptides. Biopolymers 55:188-206) and were chemoselectively immobilized onto functionalized glass slides as described (Panse S, et al. (2004) Profiling of generic anti-phosphopeptide antibodies and kinases with peptide microarrays using radioactive and fluorescence-based assays. Mol Divers 8:291-299.2.). Each peptide was printed in triplicates onto the microarray. For binding studies, 100 μg of purified thrombin (Omrix biopharmaceuticals) were directly labeled with DYLIGHT® 650 Microscale Antibody Labeling Kits, THERMO SCIENTIFIC™ (#84536) and diluted in blocking buffer SUPERBLOKTM T20 (TBS) Blocking Buffer, THERMO SCIENTIFICTM (#37536). The microarrays were incubated with 10 μg/ml DYLIGHT® 650-Thrombin or a Fluorescein-labeled cyclic gamma-loop derived peptide for one hour at 30° C. in a HS4800™ microarray processing station (Tecan) (Masch A, et al., (2010) Antibody signatures defined by high-content peptide microarray analysis. Methods Mol Biol 669:161-172).
(§3) Microarrays were washed with 0.1% TWEEN®20 in 1× TBS followed by 0.05% TWEEN®20 in 0.1× SSC and dried in a stream of nitrogen. Each microarray was scanned using GENEPIX® Autoloader 4200AL (Molecular Devices, Pixel size: 10 μm). Signal intensities were evaluated using spot recognition software GENEPIX® Pro 7.0 analysis software (Molecular Devices). For each peptide, the mean signal intensity of the three triplicates was extracted. Further evaluation and representation of results was performed using the statistical computing and graphics software R (Version 2.11.1, www.r-project.org).
(§4) One array included peptides based on the thrombin sequence. Any peptide isolated from this library may reflect possible regions in the thrombin protein that may interact with the gamma loop. […] The fluorescence for the strongest binding candidates (hits) was quantified on an arbitrary scale of 0-65535 (2^16). Thrombin activity was assesed as described in Example 1.

thrombin [4] = target: T1, thrombin; experiment: Peptide microarray binding with fluorescently labelled thrombin; conditions: DYLIGHT 650-Thrombin
Protocol: A screen was carried out to identify gamma loop mutants that may show improved binding to thrombin. This was carried out with fluorescent thrombin on an array of gamma loop peptide mutants. Three such cyclized peptides with the highest binding efficiency were tested for their capacity to stabilize thrombin without compromising thrombin activity towards fibrinogen (see Example 4 below).
as §2, with “The microarrays were incubated with 10 μg/ml DYLIGHT® 650-Thrombin or a Fluorescein-labeled” left out
as §3, §4

| Sequence | stabilization of thrombin activity (in words) (thrombin [1]) | stabilization of thrombin activity (in words) (thrombin [1]; listed as SEQ ID NO: 2) | thrombin stability (in words) (thrombin [1]; 72 and 144 hours at 37° C., FIG. 2C) | effect on thrombin activity (in words) (thrombin [2]; 0.2 mM peptide, 10 IU/ml thrombin) | remaining thrombin activity in presence of peptide (thrombin [2]; 0.5 mM peptide, 10 IU/ml thrombin, FIG. 2D) | stabilization of thrombin activity (in words) (thrombin [3]; 0.1 mM peptide, 144 hours at 37° C.) | stabilization of thrombin activity (in words) (thrombin [3]; 0.2 mM peptide, 72 hours at 37° C.) | Binding intensity of gamma loop (gamma loop of thrombin) | Binding intensity of thrombin (100 μg/ml) (thrombin [4]) | stabilization of thrombin activity (in words) (thrombin [1]; listed as SEQ ID NO:12) | inhibition of thrombin activity (in words) (thrombin [2]; any concentration tested) |
| --- | --- | --- | --- | --- | --- | --- | --- | --- | --- | --- | --- |
| GNLKETWTANVGKGQPS [SEQ ID NO:2, gamma loop peptide with flanking amino acids on N- and C-termini] | capable of stabilizing liquid aqueous thrombin | efficient stabilization of thrombin activity | an increase in thrombin stability was observed | not significantly affected | about 80% | stabilization detected | already evident |  |  |  |  |
| LGNKKFVSGSRFVST [Rnd_inter_316] |  |  |  |  |  |  |  | 26628 arbitrary units | 12353 | some stabilization effect; also recorded: capable of stabilizing liquid aqueous thrombin | absolutely no inhibition |
